B1: SOSS complex subunit B1 (Homo sapiens), Q9BQ15 (parent)
chain: MTTETFVKDIKPGLKNLNLIFIVLETGRVTKTKDGHEVRTCKVADKTGSINISVWDDVGNLIQPGDIIRLTKGYASVFKGCLTLYTGRGGDLQKIGEFCMVYSEVPNFSEPNPEYSTQQAPNKAVQNDSNPSASQPTTGPSAASPASENQNGNGLSAPPGPGGGPHPPHTPSHPPSTRITRSQPNHTPAGPPGPSSNPVSNGKETRRSSKR

Variants of: B1
Details: with atm_human ATM

effect of a mutation on the interaction	Variant
disrupting interaction	T117A

Reference: IntAct's records for PubMed 18449195
